The values below come from patent US5336488A, “Method of treating or preventing mastitis in animals with involuting mammary glands by administering recombinant cytokines” (American Cyanamid Company, priority 1992, dated 1994).

Data set [1] concerns IL-2 dependant BT-2 T cell line. Nature of the data set: Residual r-BoIL-2 bioactivity in dry cow gland secretions (BT-2 bioassay). Format: in vivo, bovine. Here is the method: FIGS. 4(A-B): Measurement of Residual r-BoIL-2 Bioactivity in Secretions from Dry Cow Glands Infused with r-BolL-2
Secretions from 4 quarters (4 different cows) are infused with 1 mg of r-BoIL-2 at drying-off (2 quarters) or not treated with r-BoIL-2 (2 quarters). Dry gland secretions are collected at time 0,72,144 and 240 hours after infusion. All samples shown are from the 72 hour time point and are diluted 1:50 and 1:200, and assayed for amount of biologically active r-BoIL-2 using the IL-2 dependant BT-2 T cell line, panel B. The BT-2 cell line is a bovine T cell line which requires IL-2 for growth. By measuring the degree of proliferation of this cell line, one directly measures the amount of biologically active IL-2 in a test media. Data is expressed as a mean ^3 H-thymidine incorporation +/- S.D. of triplicate samples of BT-2 cells for each of the individual numbered animals. […] A standard assay of various concentrations of r-BoIL-2 in 2% dry secretions is also shown in panel A as a positive control.
To specifically study the presence of cytokines after a single intramammary infusion into dry cows, […] from four different cows, are infused with 1 mg r-BoIL-2 at dry-off. […] Secretions from dry cow quarters treated with 1 mg of r-BoIL-2 are collected at 72, 144 and 240 hours after dry cow treatment. As with the milk, a 1:50 dilution of dry secretion samples is made and these solutions assayed by the bioassay using BT-2 and compared to r-BoIL-2 diluted in media.

A short description of data set [2]: Milk production in lactating glands after intramammary infusion or intramuscular injection. Format: in vivo, bovine (lactating dairy cows). Particulars: for decrease of milk production: FIG. 3A. Here is the method: FIGS. 3(A-I): Milk Production After Intramammary Infusion or Intramuscular Injection of r-BoIL-2 into Lactating Dairy Cows
Mean milk production in kilograms +/- Standard Error is recorded for 8 lactating dairy cows after intramammary infusion of r-BoIL-2 or no treatment. Data is shown as a percentage of the average milk production (Standard Deviation) compared to the first five days prior to Treatment (mean for 100% production level ). Production after r-BoIL-2 intramammary infusion with total dosing amounting to 4.5 mg or 13.5 mg in quarters infected with S. aureaus is compared to infected, untreated cows for a 6 day time period, panel A. Similarly, production is also followed in 7 lactating injections of r-BoIL-2 at 2.5 μg/kg/day for 5 days and compared to 3 normal PBS injected controls, panel B. All cows are in mid to late stages of their second or third lactation at the time of r-BoIL-2 therapy. All effects on milk production are transient, returning to pre-treatment levels within 96 hours after cessation of treatment.
In vivo measurement of daily milk production is also monitored for both intramammary infusions and intramuscular injection. Cows are milked morning and evening and the milk weighed and recorded in total kilograms per day. The total dose of IL-2 administered per cow ranges from 2 to 96 mg. Single or multiple intramammary infusions of IL-2 have variable effects on individual animal's milk production based upon the total dose of r-BoIL-2 administered per day, FIG. 3 A (INTRAMAMMARY). Production decreases as much as 30-40% by the third infusion in the high dose animals (13.5 mg), whereas only a 12% decrease is observed at the 4.5 mg dose (not statistically different from time 0 production or control animals). […] This induction would be of great significance to assist in the morphological changes required during early lactation and serves to accelerate the protective mechanisms.

B1: recombinant bovine interleukin-2 (protein, UniProt P05016 21-155, looked up)
Interleukin-2: APTSSSTGNTMKEVKSLLLDLQLLLEKVKNPENLKLSRMHTFDFYVPKVNATELKHLKCLLEELKLLEEVLNLAPSKNLNPREIKDSMDNIKRIVLELQGSETRFTCEYDDATVNAVEFLNKWITFCQSIYSTMT
notes: recombinant bovine interleukin-2, obtained from IMMUNEX Corp. Seattle, WA
For the molecule B1, the “detectable r-BoIL-2 bioactivity in dry gland secretions” value in data set [1] (1 mg intramammary at dry-off, 72 hours after infusion, 1:50 dilution) was “less than 0.024 .eta.g/ml”. In addition, in data set [1] (1 mg intramammary at drying-off, 72, 144, 240 hours), the “residual r-BoIL-2 bioactivity in secretions” value was “No r-BoIL-2 activity could be detected at any time point”. In addition, in data set [1] (after 3 days, FIG. 4), the “biologically active IL-2 in dry cow secretions” value is recorded as “no biologically active IL-2 is detected after 3 days”. Moreover, the “time to return of milk production to pre-treatment levels after cessation of treatment” value in data set [2] (intramammary or intramuscular r-BoIL-2) was not above 96 h. Moreover, the “decrease of milk production” value in data set [2] (intramammary, 4.5 mg, not statistically different from time 0 or control) is listed as 12%; in data set [2] (intramammary, 13.5 mg, by the third infusion), 30-40%. Further, in data set [2] (intramammary, total dose less than 4.5 mg), the “effect on milk production” value is listed as “No statistically significant effect on milk production”.
